Test results from US20200031885A1.
Blank lines part the entries; values can stand above or below the substance they belong to.

How the values were obtained:
Assay in all cases: affinity capture from mixture of 54 pTyr peptides, PRM-MS
[1] = target: NTRK1 (pTyr680/681) peptide DIYSTDpYpYR
[2] = target: TEC (pTyr519) peptide YVLDDQpYTSSSGAK
[3] = target: ERBB3 (pTyr866) peptide QLLpYSEAK
[4] = target: EPHA8 (pTyr793) peptide …pYTTTGGK
[5] = target: LMTK2 (pTyr295) peptide EDpYIETDDK
[6] = target: TYK2 (pTyr1054/1055) peptide AVPEGHEpYpYR
[7] = target: JAK1 (pTyr1034/1035) peptide EpYpYTVK
[8] = target: FGFR2 (pTyr656/657) peptide DINNIDpYpYK
[9] = target: RON (pTyr1238/1239) peptide EpYpYSVQQHR
[10] = target: DDR1 (pTyr796/797) peptide NLYAGDpYpYR
[11] = target: LMTK3 (pTyr296/297) peptide EDpYpYLTPER
[12] = target: ROR1 (pTyr645/646) peptide EIYSADpYpYR
[13] = target: NTRK2 (pTyr706/707) peptide DVYSTDpYpYR
[14] = target: DDR2 (pTyr740/741) peptide NLYSGDpYpYR
[15] = target: FGFR3 (pTyr647/648) peptide DVHNLDpYpYK
[16] = target: JAK2 (pTyr221) peptide IQDpYHILTR
[17] = target: ERBB2 (pTyr877) peptide LLDIDETEpYHADGGK
[18] = target: BTK (pTyr551) peptide YVLDDEpYTSSVGSK
[19] = target: EPHA2 (pTyr772) peptide …pYTTSGGK
[20] = target: JAK3 (pTyr980/981) peptide DpYpYVVR
[21] = target: TXK (pTyr420) peptide YVLDDEpYVSSFGAK
[22] = target: EPHB3 (pTyr792) peptide …pYTSSLGGK
[23] = target: INSRR (pTyr1145/1146) peptide DVYETDpYpYR
[24] = target: FGFR4 (pTyr642/643) peptide GVHHIDpYpYK
[25] = target: EPHA1 (pTyr781) peptide LLDDFDGTpYETQGGK
[26] = target: ROR2 (pTyr645/646) peptide EVYAADpYpYK
[27] = target: FGFR1 (pTyr653/654) peptide DIHHIDpYpYK
[28] = target: PTK7 (pTyr960/961) peptide DVYNSEpYpYHFR
[29] = target: MET (pTyr1234/1235) peptide EpYpYSVHNK
[30] = target: EPHB2 (pTyr780) peptide …pYTSALGGK
[31] = target: EPHA6 (pTyr830) peptide …pYTTTGGK
[32] = target: MUSK (pTyr755/756) peptide NIYSADpYpYK
[33] = target: BMX (pTyr566) peptide YVLDDQpYVSSVGTK
[34] = target: TIE1 (pTyr1007) peptide GEEVpYVK
[35] = target: ITK (pTyr512) peptide FVLDDQpYTSSTGTK
[36] = target: VGFR2 (pTyr1059) peptide DPDpYVR
[37] = target: FER (pTyr714) peptide QEDGGVpYSSSGLK
[38] = target: FRK (pTyr387) peptide VDNEDIpYESR
[39] = target: EPHA3 (pTyr779) peptide …pYTTR
[40] = target: VGFR1 (pTyr1053) peptide NPDpYVR
[41] = target: KIT (pTyr823) peptide NDSNpYVVK
[42] = target: RET (pTyr905) peptide DVYEEDSpYVK
[43] = target: MERTK (pTyr753/754) peptide IYSGDpYpYR
[44] = target: GSK3 (pTyr279/216) peptide GEPNVSpYICSR
[45] = target: BLK (pTyr389) peptide IIDSEpYTAQEGAK
[46] = target: PGFRB (pTyr857) peptide DSNpYISK
[47] = target: HCK (pTyr411) peptide VIEDNEpYTAR
[48] = target: SRMS (pTyr380) peptide DDIpYSPSSSSK
[49] = target: SRC (pTyr419) peptide LIEDNEpYTAR
[50] = target: TIE2 (pTyr992) peptide GQEVpYVK
[51] = target: EPHB1 (pTyr778) peptide …pYTSSLGGK
[52] = target: EPHB4 (pTyr774) peptide …pYTSSLGGK
[53] = target: FES (pTyr713) peptide EEADGVpYAASGGLR

PRM signal peak area [1]: 30200 | PRM signal peak area [2]: 4820 | PRM signal peak area [3]: 152000 | PRM signal peak area [4]: 57100 | PRM signal peak area [5]: 1120 | PRM signal peak area [6]: 9680 | PRM signal peak area [7]: 46200 | PRM signal peak area [8]: 39500 | PRM signal peak area [9]: 17400 | PRM signal peak area [10]: 43200 | PRM signal peak area [11]: 78600 | PRM signal peak area [12]: 27700 | PRM signal peak area [13]: 22800 | PRM signal peak area [14]: 16200 | PRM signal peak area [15]: 64600 | PRM signal peak area [16]: 39200 | PRM signal peak area [17]: 4640 | PRM signal peak area [18]: 18200 | PRM signal peak area [19]: 4860 | PRM signal peak area [20]: 10500 | PRM signal peak area [21]: 46100 | PRM signal peak area [22]: 14700 | PRM signal peak area [23]: 7790 | PRM signal peak area [24]: 30000 | PRM signal peak area [25]: 12300 | PRM signal peak area [26]: 60500 | PRM signal peak area [27]: 29000 | PRM signal peak area [28]: 4840 | PRM signal peak area [29]: 70800 | PRM signal peak area [30]: 98000 | PRM signal peak area [31]: 51100
Substance: DM human Src SH2 Superbinder expressed with His6 and GST tags (designed binder)

PRM signal peak area [1]: 21700 | PRM signal peak area [3]: 41900 | PRM signal peak area [6]: 11600 | PRM signal peak area [7]: 58300 | PRM signal peak area [8]: 51600 | PRM signal peak area [9]: 5430 | PRM signal peak area [10]: 47700 | PRM signal peak area [11]: 29900 | PRM signal peak area [12]: 32400 | PRM signal peak area [32]: 47600 | PRM signal peak area [13]: 39600 | PRM signal peak area [14]: 15300 | PRM signal peak area [15]: 104000 | PRM signal peak area [18]: 4210 | PRM signal peak area [20]: 23300 | PRM signal peak area [21]: 1520 | PRM signal peak area [24]: 29800 | PRM signal peak area [26]: 85900 | PRM signal peak area [27]: 28500 | PRM signal peak area [29]: 26800 | PRM signal peak area [30]: 10800 | PRM signal peak area [31]: 2740
Substance: wild-type (wt) human Src SH2 domain expressed with His6 and GST tags

PRM signal peak area [1]: 103000 | PRM signal peak area [2]: 781000 | PRM signal peak area [33]: 151000 | PRM signal peak area [3]: 164000 | PRM signal peak area [34]: 409000 | PRM signal peak area [4]: 585000 | PRM signal peak area [5]: 20900 | PRM signal peak area [6]: 53500 | PRM signal peak area [35]: 403000 | PRM signal peak area [7]: 110000 | PRM signal peak area [36]: 197000 | PRM signal peak area [8]: 87100 | PRM signal peak area [9]: 44300 | PRM signal peak area [10]: 338000 | PRM signal peak area [37]: 27400 | PRM signal peak area [38]: 291000 | PRM signal peak area [11]: 376000 | PRM signal peak area [12]: 177000 | PRM signal peak area [32]: 178000 | PRM signal peak area [13]: 115000 | PRM signal peak area [14]: 185000 | PRM signal peak area [39]: 394000 | PRM signal peak area [40]: 158000 | PRM signal peak area [41]: 235000 | PRM signal peak area [42]: 883000 | PRM signal peak area [15]: 258000 | PRM signal peak area [43]: 26500 | PRM signal peak area [16]: 85500 | PRM signal peak area [17]: 42700 | PRM signal peak area [44]: 48300 | PRM signal peak area [18]: 1.31e+06 | PRM signal peak area [45]: 156000 | PRM signal peak area [19]: 347000 | PRM signal peak area [46]: 398000 | PRM signal peak area [47]: 384000 | PRM signal peak area [20]: 19700 | PRM signal peak area [21]: 272000 | PRM signal peak area [22]: 260000 | PRM signal peak area [23]: 20800 | PRM signal peak area [48]: 479000 | PRM signal peak area [24]: 36100 | PRM signal peak area [49]: 99500 | PRM signal peak area [25]: 188000 | PRM signal peak area [50]: 210000 | PRM signal peak area [51]: 206000 | PRM signal peak area [52]: 134000 | PRM signal peak area [26]: 334000 | PRM signal peak area [27]: 51200 | PRM signal peak area [28]: 8860 | PRM signal peak area [29]: 111000 | PRM signal peak area [53]: 25100 | PRM signal peak area [30]: 215000 | PRM signal peak area [31]: 288000
Substance: TrM human Src SH2 Superbinder expressed with His6 and GST tags (designed binder)
